Reference: publication PMC6083498, “F-CphI represents a new homing endonuclease family using the Endo VII catalytic motif”

How the values were obtained:
[1] = molecular target: T1, F-CphI C84S (cyanophage S-PM2, UniProt Q7Y4H4 1-142, C84S); assay: EMSA; no Mg2+ added; EMSA: 10 mM Tris-HCl pH 8.0, 2% glycerol, 2 ug/ml poly-dIdC, 2 ug/ml BSA, 0.2 mM DTT, on ice 15 min, 2 nM labeled DNA; 8% native PAGE in 1X TBE; conditions: protein: recombinant; tags: C-terminal Myc-His; label: 5'-32P on top strand; blunt
T1 sequence: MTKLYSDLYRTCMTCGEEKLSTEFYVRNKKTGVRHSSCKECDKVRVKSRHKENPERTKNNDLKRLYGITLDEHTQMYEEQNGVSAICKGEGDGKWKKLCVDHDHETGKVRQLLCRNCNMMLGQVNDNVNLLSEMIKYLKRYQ

[2] = molecular target: T2, F-CphI N118D (cyanophage S-PM2, UniProt Q7Y4H4 1-142, N118D); assay: as above; conditions: protein: recombinant; tags: C-terminal Myc-His; label: 5'-32P on top strand; blunt
T2 sequence: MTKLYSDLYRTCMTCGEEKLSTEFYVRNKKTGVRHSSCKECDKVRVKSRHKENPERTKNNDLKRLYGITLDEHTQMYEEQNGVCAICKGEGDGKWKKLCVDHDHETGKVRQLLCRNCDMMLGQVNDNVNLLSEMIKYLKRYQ

B1: SBM4-60Top duplex (dsDNA)
DNA 1: TGGTCTGGGTATGGAAGTGATGCACGAGCGCAACGCTCACAACTTCCCTCTCGACCTTGC
DNA 2: GCAAGGTCGAGAGGGAAGTTGTGAGCGTTGCGCTCGTGCATCACTTCCATACCCAGACCA
binding result [1]: no binding
binding result [2]: no binding
